Data as given in patent US20210171613A1 (NATIONAL RESEARCH COUNCIL OF CANADA, published 2021).

Assays:
[1] = biological target: T1, Clostridium difficile toxin A (TcdA) (Clostridium difficile, UniProt P16154 1-2710); experiment: cell-based or functional assay
[2] = biological target: T1, Clostridium difficile toxin A (TcdA); experiment: SPR (Biacore 3000), VHH over immobilized TcdA; ratio of parent KD to mutant KD
Description: (§1) Before surface plasmon resonance (SPR) binding experiments, IMAC-purified VHHs were subjected to de-salting and further purification by size-exclusion chromatography (SEC). Approximately 500 μg of each VHH was injected over a Superdex 75 Increase 10/300 GL SEC column (GE Healthcare) in Biacore running buffer HBS-EP (10 mM HEPES pH 7.4, 150 mM NaCl, 3 mM EDTA, 0.005% (v/v) P20; GE Healthcare) under the control of an ÄKTA FPLC at 0.8 mL/min. Monomeric VHH fractions were collected and analyzed for binding to TcdA using a Biacore 3000 SPR instrument (GE Healthcare). Approximately 4,500 resonance units (RUs) of TcdA (List Biological Laboratories, Campbell, Calif.) were immobilized on a CM5 sensor chip (GE Healthcare) using the conditions previously described (Hussack et al, 2011). HBS-EP running buffer was used for all binding studies and regeneration of TcdA surfaces. Next, various dilution ranges of VHHs (as low as 10 nM-0.5 nM to as high as 5 μM-50 nM) were injected over immobilized TcdA at a flow rate of 40 μL/min with 120 s contact time and 600 s dissociation. Reference-subtracted sensorgrams were analyzed with BIAevaluation software (GE Healthcare) and fit to a 1:1 binding model. In cases where rapid kₒₙ and koff rate constants were observed, equilibrium dissociation constants (KDs) were determined by steady-state analysis.

[3] = biological target: T1, Clostridium difficile toxin A (TcdA); experiment: SPR (Biacore 3000), VHH over immobilized TcdA; binding free energy difference relative to parent VHH
Description: as §1

[4] = biological target: T1, Clostridium difficile toxin A (TcdA); experiment: SPR (Biacore 3000), VHH over immobilized TcdA, steady-state analysis
Description: as §1

[5] = biological target: T1, Clostridium difficile toxin A (TcdA); experiment: SPR on immobilized TcdA
Description: as §1
The location of these mutations relative to the antigen epitope is illustrated in FIG. 2C.

[6] = biological target: T1, Clostridium difficile toxin A (TcdA); experiment: SPR (Biacore 3000), VHH over immobilized TcdA, 1:1 fit
Description: as §1

T1 sequence (P16154 whole entry): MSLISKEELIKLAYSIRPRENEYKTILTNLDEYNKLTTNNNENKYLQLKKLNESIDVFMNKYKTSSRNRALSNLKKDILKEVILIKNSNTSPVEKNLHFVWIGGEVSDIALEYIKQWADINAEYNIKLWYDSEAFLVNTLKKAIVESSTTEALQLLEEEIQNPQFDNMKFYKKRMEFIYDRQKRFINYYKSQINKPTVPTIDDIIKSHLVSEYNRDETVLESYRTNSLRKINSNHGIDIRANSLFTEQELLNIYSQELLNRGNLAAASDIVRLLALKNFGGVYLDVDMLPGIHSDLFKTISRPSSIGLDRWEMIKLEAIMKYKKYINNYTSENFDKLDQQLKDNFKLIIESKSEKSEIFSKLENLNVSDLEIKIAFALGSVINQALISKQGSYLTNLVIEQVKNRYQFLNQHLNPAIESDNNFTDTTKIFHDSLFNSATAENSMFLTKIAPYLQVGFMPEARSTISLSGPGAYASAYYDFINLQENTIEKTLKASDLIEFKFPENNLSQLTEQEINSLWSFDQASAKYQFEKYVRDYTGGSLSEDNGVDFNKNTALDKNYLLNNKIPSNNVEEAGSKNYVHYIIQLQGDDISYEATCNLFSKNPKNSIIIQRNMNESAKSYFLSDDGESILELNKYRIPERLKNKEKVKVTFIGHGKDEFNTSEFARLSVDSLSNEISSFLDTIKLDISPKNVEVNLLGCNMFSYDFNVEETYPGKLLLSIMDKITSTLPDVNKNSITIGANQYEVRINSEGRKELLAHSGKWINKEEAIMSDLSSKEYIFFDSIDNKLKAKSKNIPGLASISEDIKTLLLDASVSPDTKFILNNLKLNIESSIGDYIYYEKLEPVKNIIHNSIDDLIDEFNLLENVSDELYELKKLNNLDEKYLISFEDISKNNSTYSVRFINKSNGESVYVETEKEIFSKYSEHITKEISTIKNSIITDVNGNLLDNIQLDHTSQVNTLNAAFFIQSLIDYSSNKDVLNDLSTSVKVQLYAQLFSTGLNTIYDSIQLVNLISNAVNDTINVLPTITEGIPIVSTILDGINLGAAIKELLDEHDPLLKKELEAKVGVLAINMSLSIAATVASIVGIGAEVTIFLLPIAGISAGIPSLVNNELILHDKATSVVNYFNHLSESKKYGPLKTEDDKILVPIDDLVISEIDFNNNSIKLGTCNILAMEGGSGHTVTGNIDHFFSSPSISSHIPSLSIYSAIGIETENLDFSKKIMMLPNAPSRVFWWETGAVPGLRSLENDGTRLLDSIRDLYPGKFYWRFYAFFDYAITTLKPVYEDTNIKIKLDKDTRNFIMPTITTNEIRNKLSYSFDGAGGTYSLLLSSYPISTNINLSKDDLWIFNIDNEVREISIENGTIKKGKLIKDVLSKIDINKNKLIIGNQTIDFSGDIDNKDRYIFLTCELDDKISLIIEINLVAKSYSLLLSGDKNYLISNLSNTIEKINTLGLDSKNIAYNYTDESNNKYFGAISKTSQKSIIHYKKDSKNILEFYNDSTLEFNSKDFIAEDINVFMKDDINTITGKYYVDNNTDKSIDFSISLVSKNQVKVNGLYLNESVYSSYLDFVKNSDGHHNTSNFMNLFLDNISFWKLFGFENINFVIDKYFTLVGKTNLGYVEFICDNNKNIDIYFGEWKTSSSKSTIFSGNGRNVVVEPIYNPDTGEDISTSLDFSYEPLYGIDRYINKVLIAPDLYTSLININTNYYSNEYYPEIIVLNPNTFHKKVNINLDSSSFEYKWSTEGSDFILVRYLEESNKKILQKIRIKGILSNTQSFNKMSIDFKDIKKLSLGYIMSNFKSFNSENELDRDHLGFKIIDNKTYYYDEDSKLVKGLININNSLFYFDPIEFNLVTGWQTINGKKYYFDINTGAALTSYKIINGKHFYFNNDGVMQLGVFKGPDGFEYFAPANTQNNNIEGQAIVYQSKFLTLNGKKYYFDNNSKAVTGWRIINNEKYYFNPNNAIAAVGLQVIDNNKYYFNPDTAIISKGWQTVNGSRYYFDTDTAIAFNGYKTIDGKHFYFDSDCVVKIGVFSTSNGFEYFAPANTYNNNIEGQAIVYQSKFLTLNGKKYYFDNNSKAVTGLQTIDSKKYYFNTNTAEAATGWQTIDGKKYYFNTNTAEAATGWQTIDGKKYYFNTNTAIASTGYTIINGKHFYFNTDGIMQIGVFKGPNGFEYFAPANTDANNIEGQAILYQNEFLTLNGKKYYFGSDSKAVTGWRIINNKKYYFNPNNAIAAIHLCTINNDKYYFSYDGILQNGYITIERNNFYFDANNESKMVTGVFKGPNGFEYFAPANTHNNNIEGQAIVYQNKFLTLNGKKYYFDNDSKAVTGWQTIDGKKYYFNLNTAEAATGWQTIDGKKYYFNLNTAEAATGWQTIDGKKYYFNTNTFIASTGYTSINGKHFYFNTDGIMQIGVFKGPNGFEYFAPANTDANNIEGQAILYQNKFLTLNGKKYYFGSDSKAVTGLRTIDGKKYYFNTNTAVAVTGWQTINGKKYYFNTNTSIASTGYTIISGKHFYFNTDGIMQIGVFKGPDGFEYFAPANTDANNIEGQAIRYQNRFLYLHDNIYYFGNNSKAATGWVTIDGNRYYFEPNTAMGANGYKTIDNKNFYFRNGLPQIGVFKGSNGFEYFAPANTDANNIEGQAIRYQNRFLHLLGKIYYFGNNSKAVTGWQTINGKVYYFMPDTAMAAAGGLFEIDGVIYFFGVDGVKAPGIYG

B1: Parent A26.8 VHH (VHH, not shown: small tags and cut ends)
VHH: QVKLEESGGGLVQAGGSLRLSCAASERTFSRYPVAWFRQAPGAEREFVAVISSTGTSTYYADSVKGRFTISRDNAKVTVYLQMNNLKREDTAVYFCAVNSQRTRLQDPNEYDYWGQGTQVTVSS
- TcdA IC50, TcdA-induced Vero cell cytotoxicity (WST-1) [1]: ~70 nM
- maximal TcdA inhibition level [1]: ~60%

B2: A26.8 VHH mutant Q106W (VHH, not shown: small tags and cut ends)
VHH: QVKLEESGGGLVQAGGSLRLSCAASERTFSRYPVAWFRQAPGAEREFVAVISSTGTSTYYADSVKGRFTISRDNAKVTVYLQMNNLKREDTAVYFCAVNSQRTRLWDPNEYDYWGQGTQVTVSS
- KD^WT/KD [2]: 0.01
- ΔΔG [3]: 2.55 kcal/mol
- Kd [4]: 1480 nM

B3: A26.8-T56R (VHH, not shown: small tags and cut ends)
VHH: QVKLEESGGGLVQAGGSLRLSCAASERTFSRYPVAWFRQAPGAEREFVAVISSTGRSTYYADSVKGRFTISRDNAKVTVYLQMNNLKREDTAVYFCAVNSQRTRLQDPNEYDYWGQGTQVTVSS
- fold improvement in KD relative to parent A26.8 VHH [5]: > 2 fold
- fold improvement in binding affinity relative to parent A26.8 VHH [5]: ~3 fold
- fold improvement in kon relative to parent [5]: ~2.5 fold
- KD^WT/KD [2]: 3
- ΔΔG [3]: -0.65 kcal/mol
- Kd [6]: 6.16 nM
- koff [6]: 0.0269 s⁻¹
- kon [6]: 4.75e+06 M⁻¹ s⁻¹

B4: A26.8 VHH mutant Q106Y (VHH, not shown: small tags and cut ends)
VHH: QVKLEESGGGLVQAGGSLRLSCAASERTFSRYPVAWFRQAPGAEREFVAVISSTGTSTYYADSVKGRFTISRDNAKVTVYLQMNNLKREDTAVYFCAVNSQRTRLYDPNEYDYWGQGTQVTVSS
- KD^WT/KD [2]: 0.008
- ΔΔG [3]: 2.82 kcal/mol
- Kd [4]: 2320 nM

B5: A26.8 VHH mutant Q106F (VHH, not shown: small tags and cut ends)
VHH: QVKLEESGGGLVQAGGSLRLSCAASERTFSRYPVAWFRQAPGAEREFVAVISSTGTSTYYADSVKGRFTISRDNAKVTVYLQMNNLKREDTAVYFCAVNSQRTRLFDPNEYDYWGQGTQVTVSS
- fold decrease in affinity relative to parent A26.8 VHH [5]: 30 to 300 fold
- KD^WT/KD [2]: 0.004
- ΔΔG [3]: 3.28 kcal/mol
- Kd [4]: 5130 nM

B6: A26.8 VHH mutant S53R (VHH, not shown: small tags and cut ends)
VHH: QVKLEESGGGLVQAGGSLRLSCAASERTFSRYPVAWFRQAPGAEREFVAVISRTGTSTYYADSVKGRFTISRDNAKVTVYLQMNNLKREDTAVYFCAVNSQRTRLQDPNEYDYWGQGTQVTVSS
- fold decrease in affinity relative to parent A26.8 VHH [5]: ~10 fold
- KD^WT/KD [2]: 0.08
- ΔΔG [3]: 1.45 kcal/mol
- Kd [4]: 224 nM

B7: A26.8 VHH mutant Q106L (VHH, not shown: small tags and cut ends)
VHH: QVKLEESGGGLVQAGGSLRLSCAASERTFSRYPVAWFRQAPGAEREFVAVISSTGTSTYYADSVKGRFTISRDNAKVTVYLQMNNLKREDTAVYFCAVNSQRTRLLDPNEYDYWGQGTQVTVSS
- fold decrease in affinity relative to parent A26.8 VHH [5]: 30 to 300 fold
- KD^WT/KD [2]: 0.03
- ΔΔG [3]: 2.04 kcal/mol
- Kd [4]: 612 nM

B8: A26.8-T56R, T103R (VHH, not shown: small tags and cut ends)
VHH: QVKLEESGGGLVQAGGSLRLSCAASERTFSRYPVAWFRQAPGAEREFVAVISSTGRSTYYADSVKGRFTISRDNAKVTVYLQMNNLKREDTAVYFCAVNSQRRRLQDPNEYDYWGQGTQVTVSS
notes: also called lead double mutant; best double mutant
- fold affinity improvement relative to parent A26.8 VHH [5]: 8 fold
- fold increase in kon relative to parent A26.8 VHH [5]: > 6 fold
- KD^WT/KD [2]: 8.1
- TcdA IC50, TcdA-induced Vero cell cytotoxicity (WST-1) [1]: ~12 nM
- fold increase in neutralization potency relative to parent A26.8 VHH [1]: 6 fold
- maximal TcdA inhibition level [1]: ~70%
- ΔΔG [3]: -1.22 kcal/mol
- Kd [6]: 2.32 nM
- koff [6]: 0.0193 s⁻¹
- kon [6]: 8.33e+06 M⁻¹ s⁻¹

B9: A26.8-T103R (VHH, not shown: small tags and cut ends)
VHH: QVKLEESGGGLVQAGGSLRLSCAASERTFSRYPVAWFRQAPGAEREFVAVISSTGTSTYYADSVKGRFTISRDNAKVTVYLQMNNLKREDTAVYFCAVNSQRRRLQDPNEYDYWGQGTQVTVSS
- fold improvement in KD relative to parent A26.8 VHH [5]: > 2 fold
- fold improvement in binding affinity relative to parent A26.8 VHH [5]: ~3 fold
- fold improvement in koff relative to parent [5]: ~2.5 fold
- KD^WT/KD [2]: 3.5
- ΔΔG [3]: -0.73 kcal/mol
- Kd [6]: 5.32 nM
- koff [6]: 0.014 s⁻¹
- kon [6]: 2.7e+06 M⁻¹ s⁻¹

B10: A26.8-T103K (VHH, not shown: small tags and cut ends)
VHH: QVKLEESGGGLVQAGGSLRLSCAASERTFSRYPVAWFRQAPGAEREFVAVISSTGTSTYYADSVKGRFTISRDNAKVTVYLQMNNLKREDTAVYFCAVNSQRKRLQDPNEYDYWGQGTQVTVSS
- fold improvement in KD relative to parent A26.8 VHH [5]: > 2 fold
- fold improvement in binding affinity relative to parent A26.8 VHH [5]: > 2 fold
- KD^WT/KD [2]: 2.3
- ΔΔG [3]: -0.48 kcal/mol
- Kd [6]: 8.29 nM
- koff [6]: 0.0199 s⁻¹
- kon [6]: 2.47e+06 M⁻¹ s⁻¹

B11: A26.8-T56R, Q101K, T103R (VHH, not shown: small tags and cut ends)
VHH: QVKLEESGGGLVQAGGSLRLSCAASERTFSRYPVAWFRQAPGAEREFVAVISSTGRSTYYADSVKGRFTISRDNAKVTVYLQMNNLKREDTAVYFCAVNSKRRRLQDPNEYDYWGQGTQVTVSS
notes: also called lead triple mutant; best triple mutant
- fold change in kon relative to original A26.8 [5]: ~7 fold
- fold improvement of KD relative to original A26.8 [5]: 10 fold
- KD^WT/KD [2]: 9.4
- TcdA IC50, TcdA-induced Vero cell cytotoxicity (WST-1) [1]: ~12 nM
- fold increase in neutralization potency relative to parent A26.8 VHH [1]: 6 fold
- maximal TcdA inhibition level [1]: ~70%
- ΔΔG [3]: -1.31 kcal/mol
- Kd [6]: 1.98 nM
- koff [6]: 0.0241 s⁻¹
- kon [6]: 1.23e+07 M⁻¹ s⁻¹

B12: A26.8-Q101K (VHH, not shown: small tags and cut ends)
VHH: QVKLEESGGGLVQAGGSLRLSCAASERTFSRYPVAWFRQAPGAEREFVAVISSTGTSTYYADSVKGRFTISRDNAKVTVYLQMNNLKREDTAVYFCAVNSKRTRLQDPNEYDYWGQGTQVTVSS
- fold improvement in KD relative to parent A26.8 VHH [5]: > 2 fold
- fold improvement in binding affinity relative to parent A26.8 VHH [5]: > 2 fold
- KD^WT/KD [2]: 2.5
- ΔΔG [3]: -0.52 kcal/mol
- Kd [6]: 7.63 nM
- koff [6]: 0.0198 s⁻¹
- kon [6]: 2.7e+06 M⁻¹ s⁻¹
